This is an account of results in patent US20160159910A1 (Genentech, published 2016).

Experiment [1] addresses T1, human B7-H4 S114A glycosylation mutant (human, UniProt Q7Z7D3 29-282).
T1 construct: Full-length human B7-H4 membrane construct with S114 changed to alanine to prevent N-linked glycosylation at N112-S114; transiently expressed on 293 cells; also called mutated S114A human B7-H4; recombinant human B7-H4 S114A
T1 sequence: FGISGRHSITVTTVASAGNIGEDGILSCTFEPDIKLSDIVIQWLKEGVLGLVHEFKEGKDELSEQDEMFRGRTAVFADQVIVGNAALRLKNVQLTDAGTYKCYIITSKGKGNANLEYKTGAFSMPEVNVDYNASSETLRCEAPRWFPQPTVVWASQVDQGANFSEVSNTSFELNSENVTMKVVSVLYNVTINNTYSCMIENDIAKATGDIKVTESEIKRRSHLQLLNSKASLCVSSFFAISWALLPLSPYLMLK
The experiment in a line: FACS on 293 cells transfected with S114A human B7-H4 (glycosylation independence).

The target in experiment [2] is T2, human B7-H4 (human, UniProt Q7Z7D3 29-282).
T2 construct: On stably transfected 293 cells (recombinant) or on MX-1 / SKBR3 tumor cells (endogenous); the cell is named under assay; also called huB7-H4; hB7-H4
T2 sequence: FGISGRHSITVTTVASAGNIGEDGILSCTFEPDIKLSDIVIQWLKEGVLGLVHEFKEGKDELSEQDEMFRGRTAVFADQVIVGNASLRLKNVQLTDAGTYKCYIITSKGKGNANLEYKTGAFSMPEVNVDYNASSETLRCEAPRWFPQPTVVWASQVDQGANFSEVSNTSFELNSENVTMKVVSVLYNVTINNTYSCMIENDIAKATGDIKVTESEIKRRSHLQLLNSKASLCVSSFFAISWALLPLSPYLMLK
Put plainly: Scatchard analysis, 125I-antibody radioligand cell binding on stably transfected 293 cells. The method, then: (§1) Competition assay mixtures of 50 μL volume containing a fixed concentration of [I¹²⁵] labeled antibody and decreasing concentrations of serially diluted, unlabeled antibody were placed into 96-well plates. […] Cells were detached from the flask using Sigma Cell Dissociation Solution and were washed with binding buffer, which consisted of Dulbecco's Modified Eagle Medium (DMEM) with 1% bovine serum albumin (BSA), […] and 0.1% sodium azide. The washed cells were added to the 96 well plates at a density of 100,000 cells in 0.2 mL of binding buffer. The final concentration of the [I¹²⁵] labeled antibody in each well was ˜250 pM. The final concentration of the unlabeled antibody in the competition assay ranged from 1000 nM through ten 2-fold dilution steps to a 0 nM buffer-only assay. Competition assays were carried out in triplicate. Competition assays were incubated for 2 hours at room temperature. After the 2-hour incubation, the competition assays were transferred to a Millipore Multiscreen filter plate (Billerica, Mass.) and washed 4 times with binding buffer to separate the free from bound [I¹²⁵] labeled antibody. The filters were counted on a Wallac Wizard 1470 gamma counter (PerkinElmer Life and Analytical Sciences Inc.; Wellesley, Mass.). The binding data was evaluated using NewLigand software (Genentech), which uses the fitting algorithm of Munson and Robard to determine the binding affinity of the antibody (Munson and Robard 1980).

In experiment [3] the target is T3, cynomolgus monkey B7-H4 (cynomolgus monkey, UniProt Q7Z7D3 29-282 (human entry)).
T3 construct: On stably transfected 293 cells; also called cyno B7-H4; recombinant cynomolgus monkey B7-H4
T3 chain: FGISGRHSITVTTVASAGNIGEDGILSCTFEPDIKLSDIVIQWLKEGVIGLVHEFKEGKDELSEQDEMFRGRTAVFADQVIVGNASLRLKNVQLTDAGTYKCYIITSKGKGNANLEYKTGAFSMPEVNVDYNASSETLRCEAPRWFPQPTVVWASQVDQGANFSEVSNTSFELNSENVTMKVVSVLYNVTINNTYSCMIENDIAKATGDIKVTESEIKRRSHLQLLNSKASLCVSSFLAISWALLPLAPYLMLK
Described as above. As to the method: as §1

Experiment [4] addresses T4, rat B7-H4 (rat, UniProt Q501W4 29-282).
T4 construct: On stably transfected 293 cells; also called recombinant rat B7-H4
T4 sequence: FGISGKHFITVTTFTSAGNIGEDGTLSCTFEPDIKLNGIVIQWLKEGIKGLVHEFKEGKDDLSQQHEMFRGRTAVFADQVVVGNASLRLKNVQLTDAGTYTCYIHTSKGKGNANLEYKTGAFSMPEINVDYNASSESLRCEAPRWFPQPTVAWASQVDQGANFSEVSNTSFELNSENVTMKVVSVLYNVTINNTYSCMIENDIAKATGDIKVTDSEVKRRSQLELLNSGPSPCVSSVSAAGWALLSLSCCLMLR
Described as above. As to the method:
as §1

For experiment [5], the target named is T5, mouse B7-H4 (mouse, UniProt Q7TSP5 29-283).
T5 construct: On stably transfected 293 cells; also called muB7-H4; recombinant mouse B7-H4
T5 sequence: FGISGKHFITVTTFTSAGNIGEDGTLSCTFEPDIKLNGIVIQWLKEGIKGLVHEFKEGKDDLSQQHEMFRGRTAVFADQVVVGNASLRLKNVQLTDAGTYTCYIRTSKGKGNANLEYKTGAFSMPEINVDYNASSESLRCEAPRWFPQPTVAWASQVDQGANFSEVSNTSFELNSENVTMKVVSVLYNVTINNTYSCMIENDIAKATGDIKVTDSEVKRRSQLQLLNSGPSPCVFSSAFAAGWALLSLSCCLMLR
The experiment is described as above. The method, then: as §1

Experiment [6] has as its target T3, cynomolgus monkey B7-H4. The experiment in a line: FACS titration on 293 cells expressing recombinant cynomolgus B7-H4 (panel '293-cyno B7-H4', lower block), geometric mean fluorescence. As to the method: (§2) The fluorescent signal was acquired with a BD FACS Calibur and EC₅₀ values were determined with the Graph Pad program Prism 4.
For experiment [7], the target named is T2, human B7-H4. The experiment in a line: FACS titration on MX-1 tumor cells, endogenous human B7-H4 (panel 'MX-1 tumor cell line', lower block), geometric mean fluorescence. The method, then: as §2
Experiment [8] has as its target T5, mouse B7-H4. Put plainly: FACS titration on 293 cells expressing recombinant mouse B7-H4 (panel '293-mouse B7-H4', lower block), geometric mean fluorescence. The method, then:
as §2

Experiment [9] concerns the target T2, human B7-H4. The experiment in a line: Scatchard analysis, 125I-antibody radioligand cell binding on MX-1 tumor cells. As to the method:
as §1

Experiment [10] has as its target T2, human B7-H4. The experiment in a line: Scatchard analysis on MX-1 cells; the table puts the affinity of 8.3 nM beside the parent antibody's 7.8 nM. As to the method: as §1, with “After the 2-hour incubation, the competition assays were transferred to a Millipore Multiscreen filter plate (Billerica, Mass.) and washed 4 times with binding buffer to separate the free from bound [I¹²⁵] labeled antibody.” left out

The target of experiment [11] is T2, human B7-H4. The experiment in a line: FACS titration on 293 cells expressing recombinant human B7-H4 (panel '293-human B7-H4', lower block), Dylight-650 goat anti-human IgG, geometric mean fluorescence. As to the method:
as §2

Experiment [12] has as its target T2, human B7-H4. Put plainly: Scatchard analysis on MX-1 cells; the table puts the affinity of 8.7 nM beside the parent antibody's 7.8 nM. As to the method:
as §1, with “After the 2-hour incubation, the competition assays were transferred to a Millipore Multiscreen filter plate (Billerica, Mass.) and washed 4 times with binding buffer to separate the free from bound [I¹²⁵] labeled antibody.” left out

In experiment [13] the target is T2, human B7-H4. Put plainly: Scatchard analysis, radioligand cell binding on MX-1 cells (endogenous human B7-H4). As to the method: as §1, with “After the 2-hour incubation, the competition assays were transferred to a Millipore Multiscreen filter plate (Billerica, Mass.) and washed 4 times with binding buffer to separate the free from bound [I¹²⁵] labeled antibody.” left out

Experiment [14] deals with T2, human B7-H4. Put plainly: Scatchard analysis, radioligand cell binding on 293 cells expressing recombinant B7-H4. The method, then: as §1
Experiment [15] deals with T3, cynomolgus monkey B7-H4. The experiment is described as above. As to the method: as §1
Experiment [16] addresses T4, rat B7-H4. The experiment is described as above. As to the method: as §1
Experiment [17] has as its target T5, mouse B7-H4. The experiment is described as above. As to the method: as §1

B1: chimeric antibody ch9B9 (antibody, human IgG1, V domains shown)
VH: QVQLQQSGAELMKPGASVKMSCKATGYTFSSYWIEWVKQRPGHGLEWIGEILPGTSITTYNAKFKVKATFTADTSSNTAYMQLSSLTSEDSAVYFCARYYFGSSSFYFDYWGQGTSLTVSS
VL: QAVVTQESALTTSPGDTVTLTCRSSTGAVTTSNYANWVQEKPDHLFTGLIGGTNNRVPGVPARFSGSLIGDKAALTITGAQTEDEAMYFCALWYNNHWVFGGGTKLE
notes: also called antibody 9B9
As a reminder, the Kd is the free concentration of one partner at which half of the binding sites on the other are occupied at equilibrium, for simple one-to-one binding. As to B1, in experiment [1], the “fold binding over the isotype control” value worked out at 100 fold. Besides, the Kd with human B7-H4 [2] was 6.6 nM; with cynomolgus monkey B7-H4 [3], 5.2 nM; with rat B7-H4 [4], 4.7 nM; with mouse B7-H4 [5], 13.7 nM.

B2: humanized 1D11.v1.7 (antibody, V domains shown)
VH: EVQLVQSGAEVKKPGASVKVSCKASGYTFTSYWIGWVRQAPGQGLEWIGDIYPGGGYTNYNEKFKGRATLTRDTSTSTAYLELSSLRSEDTAVYYCARLDGSSYRGAMDSWGQGTLVTVSS
VL: DIQMTQSPSSLSASVGDRVTITCKASQGFNKYVAWYQQKPGKAPKLLIYYTSTLQPGVPSRFSGSGSGRDYTLTISSLQPEDFATYYCLQYGNLLYAFGQGTKVEIKR
notes: also called hu1D11.v1.7; h1D11.v1.7
A word on the EC50: it is the concentration at which the effect is half-maximal. Turning to B2, the EC50 worked out at 0.68 µg/mL with cynomolgus monkey B7-H4 [6], 0.34 µg/mL with human B7-H4 [7], 0.45 µg/mL with mouse B7-H4 [8] and 0.66 µg/mL with human B7-H4 [11]. The Kd with human B7-H4 [9] amounted to 8.3 nM. For the same molecule, the “Fold to Parent mAb” value with human B7-H4 [10] stood at 0.94.

B3: humanized 1D11.v1.8 (antibody, V domains shown)
VH: EVQLVQSGAEVKKPGASVKVSCKASGYTFTSYWIGWVRQAPGQGLEWIGDIYPGGGYTNYNEKFKGRATITRDTSTSTAYLELSSLRSEDTAVYYCARLDGSSYRGAMDSWGQGTLVTVSS
VL: DIQMTQSPSSLSASVGDRVTITCKASQGFNKYVAWYQQKPGKAPKLLIYYTSTLQPGVPSRFSGSGSGRDYTLTISSLQPEDFATYYCLQYGNLLYAFGQGTKVEIKR
notes: also called hu1D11.v1.8; h1D11.v1.8
With B3, the EC50 in the experiment with cynomolgus monkey B7-H4 [6] is 0.18 µg/mL; in the experiment with human B7-H4 [7] it was 0.53 µg/mL; with mouse B7-H4 [8], 1.32 µg/mL; in the experiment with human B7-H4 [11], 2.29 µg/mL. The “Fold to Parent mAb” value with human B7-H4 [12] is 0.89. Besides, in the experiment with human B7-H4 [9], the Kd is 8.7 nM.

B4: hu1D11.v1.9 varC2 (antibody, V domains shown)
VH: EVQLVQSGAEVKKPGASVKVSCKASGYTFTSYWIGWVRQAPGQGLEWIGDIYPGGGYTNYNEKFKGRVTITRDTSTSTAYLELSSLRSEDTAVYYCARLAGSSYRGAMDSWGQGTLVTVSS
VL: DIQMTQSPSSLSASVGDRVTITCKASQGFNKYVAWYQQKPGKAPKLLIYYTSTLQPGVPSRFSGSGSGRDYTLTISSLQPEDFATYYCLQYGDLLYAFGQGTKVEIKR
notes: IgG1 / kappa; also called h1D11v1.9_VarC2; h1D11v1.9 variant C2
For the molecule B4, the Kd with human B7-H4 [13] amounted to 2 nM; in the experiment with human B7-H4 [14], 0.9 nM; with cynomolgus monkey B7-H4 [15] it was 1 nM; with rat B7-H4 [16], 1.2 nM; with mouse B7-H4 [17], 2.1 nM.

B5: chimeric antibody ch1D11 (antibody, human IgG1, V domains shown)
VH: QVQLQQSGAELVRPGTSVKMSCKASGYTFTSYWIGWAKQRPGHGFEWIGDIYPGGGYTNYNEKFKGKATLTADKSSSTAYMQFSSLTSEDSAIYYCARLDGSSYRGAMDSWGQGTSITVSS
VL: DIQMTQSPSSLSASLGGKVTITCKASQGFNKYVAWYQHKPGQCPRLLIHYTSTLQPGIPARFSGSGSGRDYSFSISNLEPEDSATYFCLQYGNLLYAFGGGTKLEIKR
notes: also called parental 1D11 antibody; antibody 1D11
For the molecule B5, the EC50 with cynomolgus monkey B7-H4 [6] was 0.66 µg/mL; with human B7-H4 [7], 0.67 µg/mL; with mouse B7-H4 [8] it was 0.38 µg/mL; with human B7-H4 [11], 0.96 µg/mL. The Kd amounted to 7.8 nM in the experiment with human B7-H4 [9]; 6.1 nM with human B7-H4 [2]; 4.1 nM with cynomolgus monkey B7-H4 [3]; 4.1 nM in the experiment with rat B7-H4 [4]; 9.4 nM with mouse B7-H4 [5].
